Among the data in publication PMC9890229 are binding values, retold here.

Data set [1] has as its target T1, Hfq;Crc (Pseudomonas aeruginosa;Pseudomonas aeruginosa) (UniProt Q9HUM0+Q51380). Briefly: cryo-EM. To be noted: EMSA: 20 mM Tris-HCl pH 8.0, 40 mM NaCl, 10 mM KCl, 1 mM MgCl2; 200 nM RNA; 15 min at 37 C; 4% PAA gel in 1x TBE at 4 C, SYBR gold. For orientation: Mobility shift assays separate free from complexed probe on a gel.
The target of data set [2] is T1, Hfq;Crc (Pseudomonas aeruginosa;Pseudomonas aeruginosa). The data set can be described thus: EMSA. The following applies: EMSA: 20 mM Tris-HCl pH 8.0, 40 mM NaCl, 10 mM KCl, 1 mM MgCl2; 200 nM RNA; 15 min at 37 C; 4% PAA gel in 1x TBE at 4 C, SYBR gold.

“GGAACGCAAACGUUUGCGUCUGGAUAAUCUCCUGGAAAAGCCUCAAUACAACGAUAAGAAAAGCUGGAGGAUACACCAUGAAGCGGGUCGCUUCCCGGCGCCUGUUGGCU [rbsB110]”: the binding entry in data set [1] and in data set [2] was “binds” in each case.
As for “GGCUGAGGAGGCUUUACGACGGGCCCCGGGGCGCAUGCCGACGACGCGGCGGCCCGACAAUAAAAACAAAUCAUGGAGUAAGAGAAUGAUCAGAAUGGCGCUCAAGCCACUGGUAGCG [estA118]”, the binding entry in data set [1] and in data set [2] was “binds” in each case.
For “GGGCCUUUUUUCGUCCCGAAAAAAUAACAACAAGAGGUGAUAUCCAUGCGUCACGGCGAUAUUUCCAGCAGCAACGACACCGUCGGAGUGGCGGUGGUCAACUAC [amiE105]”, the binding entry in data set [1] and in data set [2] was “binds” throughout.
